Some targets named below: HLA DRB1*0301 (human); HLA DRB1*1301 (human); HLA DRB1*1101 (human); HLA DRB1*0101 (human); HLA DRB1*0401 (human); HLA DRB1*0701 (human); HLA DRB1*1501 (human).
What all share (assay): HLA class II competition binding assay

As usually defined, the IC50 is the concentration that gives 50% inhibition. The low end stands for greater potency in that assay, the high end for weaker potency in that assay.

B1: SEQ ID NO 114 (peptide)
peptide: EEQYNSTYTVVSVLTVLHQD
Take B1: the IC50 in the assay with HLA DRB1*0301 came out at 1570 nM; with HLA DRB1*1301, 1860 nM; in the assay with HLA DRB1*1101 it was 84 nM; with HLA DRB1*0101 it was 19 nM; with HLA DRB1*0401, 1210 nM; in the assay with HLA DRB1*0701 it was 115 nM. Besides, in the assay with HLA DRB1*1501, the IC50 was determined as 2110 nM.
